Test results taken from CN111171150A (BEIJING ZHIREN MEIBO BIOTECHNOLOGY CO LTD, dated 2020).
Residue numbers refer to the chain shown, from its start. Blank lines part the entries; values can stand above or below the binder they belong to.

What was measured:
[1] = target: T1, mfTSLP (cynomolgus monkey (Macaca fascicularis)); assay: SPR (Biacore X100) as in Example 3.1, antibody captured, mfTSLP as analyte
T1 construct: also called 猴TSLP; 食蟹猴TSLP
T1 chain: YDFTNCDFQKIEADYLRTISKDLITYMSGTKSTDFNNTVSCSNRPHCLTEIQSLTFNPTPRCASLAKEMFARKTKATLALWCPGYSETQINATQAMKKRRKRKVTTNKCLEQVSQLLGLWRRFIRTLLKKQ

[2] = target: T2, hTSLP1-m-mFc (human (homo sapiens)); mouse (mus …, limits assumed); assay: ELISA on coated hTSLP1-m-mFc (1 μg/mL), HRP anti-human IgG
T2 construct: also called 人TSLP
T2 chain: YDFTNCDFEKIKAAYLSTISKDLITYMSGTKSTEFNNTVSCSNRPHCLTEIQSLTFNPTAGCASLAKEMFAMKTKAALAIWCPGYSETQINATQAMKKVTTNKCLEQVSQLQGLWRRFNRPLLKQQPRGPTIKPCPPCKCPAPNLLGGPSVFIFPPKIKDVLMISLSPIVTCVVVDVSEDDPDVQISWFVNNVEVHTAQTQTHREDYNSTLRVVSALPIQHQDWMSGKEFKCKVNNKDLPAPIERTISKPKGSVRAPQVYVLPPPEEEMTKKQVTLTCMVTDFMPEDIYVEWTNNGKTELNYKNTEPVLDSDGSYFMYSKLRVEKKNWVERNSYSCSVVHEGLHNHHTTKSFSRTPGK

[3] = target: T3, mfTSLP1-m-mFc (cynomolgus monkey (Macaca …)); assay: ELISA on coated mfTSLP1-m-mFc (1 μg/mL), HRP anti-human IgG
T3 construct: also called 食蟹猴TSLP
T3 chain: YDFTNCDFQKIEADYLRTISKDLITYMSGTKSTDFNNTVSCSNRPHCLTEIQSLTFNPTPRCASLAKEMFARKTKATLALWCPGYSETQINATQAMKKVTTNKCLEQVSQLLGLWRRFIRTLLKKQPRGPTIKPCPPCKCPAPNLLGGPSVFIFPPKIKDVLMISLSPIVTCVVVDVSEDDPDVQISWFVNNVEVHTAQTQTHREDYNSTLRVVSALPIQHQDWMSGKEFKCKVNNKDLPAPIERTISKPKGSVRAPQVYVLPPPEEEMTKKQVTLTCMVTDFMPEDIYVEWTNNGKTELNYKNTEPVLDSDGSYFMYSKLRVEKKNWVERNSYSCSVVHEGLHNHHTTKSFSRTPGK

[4] = target: T4, mTSLP-mFc (mouse (mus musculus)); assay: ELISA on coated mTSLP-mFc (1 μg/mL), HRP anti-human IgG
T4 construct: also called 小鼠TSLP
T4 chain: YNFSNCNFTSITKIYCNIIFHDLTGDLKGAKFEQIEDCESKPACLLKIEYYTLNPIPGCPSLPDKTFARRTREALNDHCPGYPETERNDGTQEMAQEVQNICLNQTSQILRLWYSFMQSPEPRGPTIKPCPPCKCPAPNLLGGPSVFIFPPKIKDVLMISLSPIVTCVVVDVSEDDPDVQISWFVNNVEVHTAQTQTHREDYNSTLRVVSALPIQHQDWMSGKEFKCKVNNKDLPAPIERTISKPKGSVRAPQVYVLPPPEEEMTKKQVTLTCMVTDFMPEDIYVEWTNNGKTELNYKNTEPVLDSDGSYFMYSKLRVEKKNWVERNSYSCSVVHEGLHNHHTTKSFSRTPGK

[5] = target: T5, hTSLP1-m-His (human (homo sapiens), UniProt Q969D9 29-159); assay: competition ELISA on coated hTSLP1-m-his; competitor Tezepelumab-mIgG2a; HRP anti-human IgG
T5 construct: Long version of the human TSLP extracellular region, furin site deleted, His tag at the C-terminus, made in HEK293; also called hTSLP-m-his; not shown: C-terminal His tag

[6] = target: T5, hTSLP1-m-His; assay: SPR (Biacore X100) as in Example 3.1, antibody captured, hTSLP as analyte
[7] = target: T5, hTSLP1-m-His; assay: SPR (Biacore X100), antibody captured by anti-human IgG (Fc) on CM5, hTSLP1-m-his as analyte, 25 C, 1:1 fit

Kd [1]: 0.00816 nM
B1: Tezepelumab (antibody, V domains shown)
VH: QMQLVESGGGVVQPGRSLRLSCAASGFTFRTYGMHWVRQAPGKGLEWVAVIWYDGSNKHYADSVKGRFTITRDNSKNTLNLQMNSLRAEDTAVYYCARAPQWELVHEAFDIWGQGTMVTVSS
VL: SYVLTQPPSVSVAPGQTARITCGGNNLGSKSVHWYQQKPGQAPVLVVYDDSDRPSWIPERFSGSNSGNTATLTISRGEAGDEADYYCQVWDSSSDHVVFGGGTKLTVL
notes: also called AMG 157; MEDI9929

binding result [2]: binds | binding result [3]: binds | Kd [1]: 2.66 nM | binding result [4]: no binding
B2: H1A10+L3E8-M1 (antibody, human IgG4, V domains shown)
VH: QVQLVQSGAEVKKPGASVKVSCKASGYAFSNYWMNWVRQAPGQGLEWMGQIFPGDSDTDYDQKFQGRVTMTRDTSTSTVYMELSSLRSEDTAVYYCARAGYYRGYYAMDYWGQGTTVTVSS
VL: EIVMTQSPATLSVSPGERATLSCSVSSSISSSNLHWYQQKPGQAPRPWIYGTSNLASGIPARFSGSGSGTEFTLTISSLQSEDFAVYYCQQWSSYPLTFGQGTKLEIK
notes: also called L3E8人源化突变体; 人源化抗TSLP单克隆抗体

binding result [5]: binds
B3: H1A10+L3E8-M1-IgG1m3 (antibody, V domains shown)
VH: B2 VH
VL: B2 VL
notes: IgG1m3 version; also called L3E8人源化突变体(IgG1m3版本)

binding result [5]: binds
B4: H1A10+L3E8-M3-IgG1m3 (antibody, V domains shown)
VH: B2 VH
VL: B2 VL with L21I, S22T
notes: as for B3

binding result [2]: binds | binding result [3]: binds | binding result [4]: no binding
B5: H1A10+L3E8 (antibody, V domains shown)
VH: B2 VH
VL: B2 VL with L21I, S22T, R46K, T73S, L79V, Q80E, S81A, F84A

binding result [5]: binds
B6: H1A10+L3E8-M4-IgG1m3 (antibody, V domains shown)
VH: B2 VH
VL: B2 VL with L79M, Q80E, S81A
notes: as for B3

binding result [2]: binds | binding result [3]: binds | Kd [1]: 2.63 nM | binding result [4]: no binding
B7: H1A10+L3E8-M4 (antibody, IgG4, V domains shown)
VH: B2 VH
VL: B2 VL with L79M, Q80E, S81A
notes: also called L3E8人源化突变体

binding result [2]: binds | binding result [3]: binds | Kd [1]: 2.59 nM | binding result [4]: no binding
B8: H1A10+L3E8-M2 (antibody, IgG4, V domains shown)
VH: B2 VH
VL: B2 VL with R46K
notes: also called L3E8人源化突变体

binding result [5]: binds
B9: H1A10+L3E8-M2-IgG1m3 (antibody, V domains shown)
VH: B2 VH
VL: B2 VL with R46K
notes: as for B3

binding result [2]: binds | binding result [3]: binds | Kd [1]: 2.37 nM | binding result [4]: no binding
B10: H1A10+L3E8-M3 (antibody, IgG4, V domains shown)
VH: B2 VH
VL: B2 VL with L21I, S22T
notes: also called L3E8人源化突变体

Kd [6]: 0.012 nM | Kd [7]: 0.0092 nM
B11: S2B1-IgG4 (antibody, V domains shown)
VH: EVKLQQSGAELVRPGSSVKISCKASGYAFSNYWMNWVKQRPGQGLEWIGQIFPGDGDTDYNGKFKGKATLTADKSSSTAYMQLSSLTSEDSAVYFCARAGYYRGYYAMDYWGQGTSVTVSA
VL: EIVLTQSPALMAASPGEKVTITCSVSSSISSSNLHWYQQKSETSPKPWIYGTSNLASGVPVRFSGSGSGTSYSLTISSMEAEDAATYYCQQWSSYPLTFGAGTKLEIK
